Results: US20220135694A1, “NOVEL CD40-BINDING ANTIBODIES” (LAVA THERAPEUTICS B.V., priority 2019, published 2022)
Each block holds one molecule with its values, some of them ahead of it.

What was measured:
human CD40 [1] = biological target: T1, human CD40 (human, UniProt P25942 21-277); assay: flow cytometry, CD40+ CII cell line (n=3), non-linear regression curve
T1 construct: In the assays it stood on CD40-transfected HEK293T cells, primary CLL cells or the CLL-derived CII cell line; also called tumor necrosis factor receptor superfamily member 5; TNR5_HUMAN
T1 sequence (P25942 21-277 limits assumed): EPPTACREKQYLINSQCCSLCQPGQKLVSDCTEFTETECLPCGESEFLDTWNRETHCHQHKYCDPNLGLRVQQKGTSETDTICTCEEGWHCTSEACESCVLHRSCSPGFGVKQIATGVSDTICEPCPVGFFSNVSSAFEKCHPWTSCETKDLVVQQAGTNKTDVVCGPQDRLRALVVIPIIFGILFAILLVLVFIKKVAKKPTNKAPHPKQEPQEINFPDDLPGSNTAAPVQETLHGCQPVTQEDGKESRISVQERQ
Experimental: (§1) FIG. 6: V19S76K-5C8 binds to CD40⁺ and Vγ9Vδ2+ cells. Cell lines were incubated with V19S76K-5C8 or medium control and bound bsVHH was detected using anti-llama IgG heavy and light chain antibodies by flow cytometry. (A) Bar plots and (B) non-linear regression analysis of V19S76K-5C8 binding to healthy donor-derived Vγ9Vδ2-T cell lines (n=3). (C) Bar plots and (D) non-linear regression analysis of V19S76K-5C8 binding to […] CD40⁺ CII cell line (n=3). […] (A, C: repeated-measures one-way ANOVA followed by Dunnett's post hoc test compared to condition without bsVHH; B, D: non-linear regression analysis).

[2] = biological target: human Vγ9Vδ2 T cell receptor (human) (UniProt Q99603); assay: flow cytometry, healthy donor-derived Vγ9Vδ2-T cell lines (n=3), non-linear regression curve
human CD40 [3] = biological target: T1, human CD40; assay: flow cytometry on CD40+ CII cells, anti-llama IgG detection, non-linear regression
Experimental: as §1

[4] = biological target: human Vγ9Vδ2 T cell receptor (human) (UniProt Q99603); assay: flow cytometry on healthy donor-derived Vγ9Vδ2-T cell lines, anti-llama IgG detection, non-linear regression
CD40 [5] = biological target: T2, CD40 (Homo sapiens, UniProt P25942); assay: CD40 agonistic activity in primary CLL cells, 48 h, flow cytometry; format: cell-based; settings: various concentrations, FIG. 3A-C
T2 construct: Primary chronic lymphocytic leukemia (CLL) cells express CD40 on the cell surface; endogenous in cells; host or cells: primary CLL PBMCs from untreated CLL patients
T2 sequence (P25942 21-277): as the sequence (P25942 21-277 limits assumed) above
Experimental: PBMCs (≥90% CD5^+CD19^+) from untreated CLL patients were obtained and cryopreserved as described in Example 3. Thawed cells were kept in complete IMDM.
To assess whether binding of the VHH to CD40 has agonistic effects, primary CLL PBMCs were cultured for 48 hours in the presence of VHH, medium control or recombinant multimeric CD40 ligand (rmCD40L; 100 ng/mL, Bioconnect).
After 48 hours, cells were harvested, washed and incubated with AF700-conjugated anti-CD19 (557921), FITC-conjugated anti-CD80 (6109965), APC-conjugated anti-CD86 (555660, all BD Biosciences), PE-conjugated anti-CD5 (12-0059-42, Thermo Fisher Scientific) and PECy7-conjugated anti-CD95 (305621, Biolegend, San Diego, Calif., USA) antibodies for 20 minutes at 4° C. Alternatively, after 48 hours, cells were harvested and viability was measured using Mitotracker Orange (25-minute incubation at 37° C.) and To-pro-3 (10-minute incubation at room temperature; both Thermo Fisher Scientific). Samples were measured on a FACSCanto cytometer (BD Biosciences) and analyzed with Flowjo MacV10.
To assess whether binding of the VHH has agonistic effects, primary CLL PBMCs were cultured with the indicated concentrations of V19S76K-5C8, medium control or rmCD40L for 48 hours and analyzed by flow cytometry as described in Example 4.

[6] = biological target: T3, human CD40 (CD40-transfected HEK293T cells) (Homo sapiens, UniProt P25942); assay: Monovalent VHH binding to CD40-transfected HEK293T cells, Myc-tag flow cytometry; settings: for binding to CD40-expressing cells: detection of the Myc tag, FIG. 1B; for average geometric mean fluorescence intensity (Myc-tag): CD40-transfected HEK293T cells, 2 experiments
T3 construct: expressed in transfected cells; host or cells: HEK293T
T3 sequence (P25942 21-277): as the sequence (P25942 21-277 limits assumed) above
Experimental: The embryonic kidney cell line HEK293T, either wildtype (WT) or transfected with human CD40, was grown in Dulbecco's Modified Eagle Medium (41965-039, Thermo Fisher Scientific, Waltham, Mass., USA), supplemented with 10% fetal calf serum (F7524, Merck, Kenilworth, N.J., USA), 200 mM L-glutamine (25030-123, Thermo Fisher Scientific), 0.05 mM β-mercapto-ethanol (M6250, Merck) and 10,000 U/mL penicillin/streptomycin (15140-122, Thermo Fisher Scientific), hereafter referred to as complete DMEM.
CD40 expression on CD40-transfected cells was confirmed by incubation with a PE-conjugated anti-CD40 antibody (IM1936U, Beckman Coulter, Brea, Calif., USA) for 20 minutes at 4° C. […] Bound VHH was detected by sequential incubation with mouse-anti-Myc tag (05-274, Merck) and AF488-conjugated goat-anti-mouse (A-11001, Thermo Fisher Scientific) antibodies for 20 minutes at 4° C.
Samples were measured on a FACSCanto cytometer (BD Biosciences, Franklin Lakes, N.J., USA) and analyzed with Flowjo MacV10.

primary CLL cells = assay: Monovalent VHH binding to primary CLL cells, flow cytometry; set-up: species or system human; settings: n=5 samples; FIG. 2B
From the text: Peripheral blood (PB) mononuclear cells (PBMCs, ≥95% CD5^+CD19^+) were isolated from PB samples from untreated CLL patients and cryopreserved as described previously (Hallaert et al. (2008), Blood 112(13):5141-9). The study was approved by the medical ethics committee at the Amsterdam UMC. Written informed consent from all subjects was obtained. Thawed cells were kept in Iscove's Modified Dulbecco's Medium (IMDM; 12440-053, Thermo Fisher Scientific), supplemented with 10% fetal calf serum (F7524, Merck), 200 mM L-glutamine (25030-123, Thermo Fisher Scientific), 0.05 mM β-mercapto-ethanol (M6250, Merck) and 10.000 U/mL penicillin/streptomycin (15140-122, Thermo Fisher Scientific), hereafter referred to as complete IMDM.
CD40 expression on primary CLL cells was confirmed and VHH binding was tested as described in Example 2.

CD40 [7] = biological target: T2, CD40; assay: CD40 antagonistic activity in primary CLL cells: pre-incubation, then rmCD40L for 48 h; format: cell-based; settings: 30 min pre-incubation, then rmCD40L 100 ng/mL for 48 hours; FIG. 4A-C
Experimental: PBMCs (≥90% CD5^+CD19^+) from untreated CLL patients were obtained and cryopreserved as described in […]. Thawed cells were kept in complete IMDM.
To test whether the VHH antagonizes CD40 stimulation, primary CLL PBMCs were pre-incubated with VHH or medium control for 30 minutes at 37° C. and subsequently cultured for 48 hours in the presence of rmCD40L (100 ng/mL).
After 48 hours, cells were analyzed by flow cytometry as described in Example 4.
To assess whether binding of the VHH has antagonistic effects, primary CLL PBMCs were pre-incubated with V19S76K-5C8 or medium control and then cultured with rmCD40L for 48 hours and analyzed by flow cytometry as described in Example 5.

EC50 (read off the curve) (human CD40 [1]): ~10 nM | EC50 (read off the curve) [2]: 1 nM | Kd (human CD40 [3]): 10.9 nM | Kd [4]: 1.2 nM
B1: V19S76K-5C8 (bispecific antibody)
chain: QVQLQESGGGLVQAGGSLRLSCAASGRTFGRSAMGWFRQAPGKEREFVAAIGTRGGSTKYADSVKGRFTISTDNAKNTVYLQMDSLKPEDTAVYRCAVRGPGYPSAAIFQDEYHYWGQGTQVTVSSGGGGSEVQLVESGGGLVQAGGSLRLSCAASGRPFSNYAMGWFRQAPGKEREFVAAISWSGGSTSYADSVKGRFTISRDNAKNTVYLQMNSPKPEDTAIYYCAAQFSGADYGFGRLGIRGYEYDYWGQGTQVTVSS
notes: also called bispecific anti-CD40-anti-Vγ9Vδ2 TCR VHH V19S76K-5C8; bsVHH

binding to CD40-expressing cells [6]: bound to the CD40-expressing cells
B2: V15t: monovalent anti-CD40 VHH V15 with C-terminal Myc- and His6-tag, SEQ ID NO:16 (protein)
VHH: EVQLQESGGGLVQAGGSLRLSCVTSGSAFSSDTMGWFRQAPGKQRELVASISSRGVREYADSVKGRFTISRDNAKNTVYLQMNSLQPEDTAVYYCNRGALGLPGYRPYNNWGQGTQVTVSSGLEGHSDHMEQKLISEEDLNRISDHHHHHH
modifications: antibody sequence
CD40 stimulation (viability, CD86 and CD95 expression) (CD40 [5]): did not induce any of these effects | binding to primary CLL cells (primary CLL cells): higher binding intensity than V12t | prevention of CD40L-induced CD40 stimulation (viability, CD86 and CD95 expression) (CD40 [7]): prevented CD40 stimulation in a dose-dependent manner

average geometric mean fluorescence intensity (Myc-tag) ([6]; VHH concentration 1 pM): 5031 | average geometric mean fluorescence intensity (Myc-tag) ([6]; VHH concentration 10 pM): 4938 | average geometric mean fluorescence intensity (Myc-tag) ([6]; VHH concentration 100 pM): 5538 | average geometric mean fluorescence intensity (Myc-tag) ([6]; VHH concentration 1 nM): 6783 | average geometric mean fluorescence intensity (Myc-tag) ([6]; VHH concentration 10 nM): 9101 | average geometric mean fluorescence intensity (Myc-tag) ([6]; VHH concentration 100 nM): 16175 | binding to CD40-expressing cells [6]: bound to the CD40-expressing cells
B3: V19t: monovalent anti-CD40 VHH V19 with C-terminal Myc- and His6-tag, SEQ ID NO:15 (protein)
VHH: QVQLQESGGGLVQAGGSLRLSCAASGRTFGRSAMGWFRQAPGKEREFVAAIGTRGGSTKYADSVKGRFTISTDNASNTVYLQMDSLKPEDTAVYRCAVRGPGYPSAAIFQDEYHYWGQGTQVTVSSGLEGHSDHMEQKLISEEDLNRISDHHHHHH
modifications: antibody sequence
CD40 stimulation (viability, CD86 and CD95 expression) (CD40 [5]): did not induce any of these effects | binding to primary CLL cells (primary CLL cells): higher binding intensity than V12t | prevention of CD40L-induced CD40 stimulation (viability, CD86 and CD95 expression) (CD40 [7]): prevented CD40 stimulation in a dose-dependent manner
